# Laboratory results as given in the Human Domainome abundance scans (Beltran et al. 2025).
# ± gives the uncertainty stated by the source.
# Assay: abundance fitness (aPCA) (normalised: wild type 0, dead -1); higher = more abundant; growth selection in yeast, the domain comes from the species named
# Details: Homo sapiens
row,Substance,abundance fitness
1,"SAFB-like transcription modulator D62S, Q9NWH9",-0.191 ± 0.046
2,"SAFB-like transcription modulator D62T, Q9NWH9",-0.212 ± 0.066
3,"SAFB-like transcription modulator D62V, Q9NWH9",-0.397 ± 0.039
4,"SAFB-like transcription modulator D62W, Q9NWH9",-0.66 ± 0.045
5,"SAFB-like transcription modulator D62Y, Q9NWH9",-0.46 ± 0.064
6,"SAFB-like transcription modulator D64A, Q9NWH9",-0.12 ± 0.04
7,"SAFB-like transcription modulator D64C, Q9NWH9",-0.166 ± 0.05
8,"SAFB-like transcription modulator D64E, Q9NWH9",-0.038 ± 0.034
9,"SAFB-like transcription modulator D64F, Q9NWH9",-0.144 ± 0.048
10,"SAFB-like transcription modulator D64G, Q9NWH9",-0.09 ± 0.041
11,"SAFB-like transcription modulator D64H, Q9NWH9",-0.124 ± 0.058
12,"SAFB-like transcription modulator D64I, Q9NWH9",-0.28 ± 0.072
13,"SAFB-like transcription modulator D64K, Q9NWH9",-0.171 ± 0.058
14,"SAFB-like transcription modulator D64M, Q9NWH9",-0.016 ± 0.04
15,"SAFB-like transcription modulator D64N, Q9NWH9",0.035 ± 0.037
16,"SAFB-like transcription modulator D64P, Q9NWH9",-0.519 ± 0.039
17,"SAFB-like transcription modulator D64R, Q9NWH9",-0.23 ± 0.032
18,"SAFB-like transcription modulator D64S, Q9NWH9",-0.113 ± 0.035
19,"SAFB-like transcription modulator D64T, Q9NWH9",-0.076 ± 0.04
20,"SAFB-like transcription modulator D64V, Q9NWH9",-0.317 ± 0.045
21,"SAFB-like transcription modulator D64W, Q9NWH9",-0.068 ± 0.046
22,"SAFB-like transcription modulator E33A, Q9NWH9",-0.455 ± 0.068
23,"SAFB-like transcription modulator E33C, Q9NWH9",-0.68 ± 0.1
24,"SAFB-like transcription modulator E33D, Q9NWH9",-0.916 ± 0.16
25,"SAFB-like transcription modulator E33F, Q9NWH9",-0.645 ± 0.049
26,"SAFB-like transcription modulator E33G, Q9NWH9",-0.974 ± 0.086

row,Substance,abundance fitness
1,"SAFB-like transcription modulator E33H, Q9NWH9",-0.512 ± 0.13
2,"SAFB-like transcription modulator E33K, Q9NWH9",-0.89 ± 0.18
3,"SAFB-like transcription modulator E33L, Q9NWH9",-0.123 ± 0.061
4,"SAFB-like transcription modulator E33M, Q9NWH9",-0.007 ± 0.083
5,"SAFB-like transcription modulator E33N, Q9NWH9",-0.755 ± 0.1
6,"SAFB-like transcription modulator E33P, Q9NWH9",-1.16 ± 0.2
7,"SAFB-like transcription modulator E33Q, Q9NWH9",-0.111 ± 0.079
8,"SAFB-like transcription modulator E33R, Q9NWH9",-0.961 ± 0.077
9,"SAFB-like transcription modulator E33S, Q9NWH9",-0.353 ± 0.078
10,"SAFB-like transcription modulator E33T, Q9NWH9",-1.08 ± 0.17
11,"SAFB-like transcription modulator E33V, Q9NWH9",-0.917 ± 0.094
12,"SAFB-like transcription modulator E33W, Q9NWH9",-0.871 ± 0.1
13,"SAFB-like transcription modulator E57A, Q9NWH9",-0.085 ± 0.082
14,"SAFB-like transcription modulator E57C, Q9NWH9",-0.192 ± 0.096
15,"SAFB-like transcription modulator E57D, Q9NWH9",-0.164 ± 0.086
16,"SAFB-like transcription modulator E57G, Q9NWH9",-0.204 ± 0.044
17,"SAFB-like transcription modulator E57H, Q9NWH9",0.063 ± 0.16
18,"SAFB-like transcription modulator E57I, Q9NWH9",0.048 ± 0.39
19,"SAFB-like transcription modulator E57K, Q9NWH9",-0.159 ± 0.11
20,"SAFB-like transcription modulator E57L, Q9NWH9",-0.049 ± 0.071
21,"SAFB-like transcription modulator E57M, Q9NWH9",-0.164 ± 0.094
22,"SAFB-like transcription modulator E57Q, Q9NWH9",-0.667 ± 0.25
23,"SAFB-like transcription modulator E57R, Q9NWH9",0.034 ± 0.06
24,"SAFB-like transcription modulator E57S, Q9NWH9",-0.031 ± 0.056
25,"SAFB-like transcription modulator E57T, Q9NWH9",-0.122 ± 0.079
26,"SAFB-like transcription modulator E57V, Q9NWH9",-0.064 ± 0.063

row,Substance,abundance fitness
1,"SAFB-like transcription modulator E57W, Q9NWH9",-0.124 ± 0.059
2,"SAFB-like transcription modulator E57Y, Q9NWH9",-0.319 ± 0.11
3,"SAFB-like transcription modulator E58A, Q9NWH9",-0.026 ± 0.06
4,"SAFB-like transcription modulator E58C, Q9NWH9",-0.113 ± 0.064
5,"SAFB-like transcription modulator E58D, Q9NWH9",-0.444 ± 0.15
6,"SAFB-like transcription modulator E58F, Q9NWH9",-0.105 ± 0.054
7,"SAFB-like transcription modulator E58G, Q9NWH9",-0.021 ± 0.051
8,"SAFB-like transcription modulator E58H, Q9NWH9",0.147 ± 0.084
9,"SAFB-like transcription modulator E58K, Q9NWH9",-0.134 ± 0.084
10,"SAFB-like transcription modulator E58L, Q9NWH9",-0.036 ± 0.036
11,"SAFB-like transcription modulator E58M, Q9NWH9",0.008 ± 0.071
12,"SAFB-like transcription modulator E58N, Q9NWH9",-0.068 ± 0.077
13,"SAFB-like transcription modulator E58P, Q9NWH9",-0.867 ± 0.12
14,"SAFB-like transcription modulator E58Q, Q9NWH9",-0.014 ± 0.077
15,"SAFB-like transcription modulator E58R, Q9NWH9",0.028 ± 0.034
16,"SAFB-like transcription modulator E58S, Q9NWH9",0.024 ± 0.053
17,"SAFB-like transcription modulator E58T, Q9NWH9",-0.043 ± 0.067
18,"SAFB-like transcription modulator E58V, Q9NWH9",-0.074 ± 0.06
19,"SAFB-like transcription modulator E58W, Q9NWH9",-0.52 ± 0.076
20,"SAFB-like transcription modulator E58Y, Q9NWH9",-0.342 ± 0.076
21,"SAFB-like transcription modulator E59C, Q9NWH9",-0.404 ± 0.037
22,"SAFB-like transcription modulator E59D, Q9NWH9",-0.225 ± 0.087
23,"SAFB-like transcription modulator E59F, Q9NWH9",-0.924 ± 0.07
24,"SAFB-like transcription modulator E59G, Q9NWH9",-0.226 ± 0.044
25,"SAFB-like transcription modulator E59I, Q9NWH9",-0.784 ± 0.1
26,"SAFB-like transcription modulator E59K, Q9NWH9",-0.653 ± 0.13

row,Substance,abundance fitness
1,"SAFB-like transcription modulator E59L, Q9NWH9",-0.794 ± 0.041
2,"SAFB-like transcription modulator E59N, Q9NWH9",-0.275 ± 0.056
3,"SAFB-like transcription modulator E59P, Q9NWH9",-0.768 ± 0.05
4,"SAFB-like transcription modulator E59Q, Q9NWH9",-0.336 ± 0.078
5,"SAFB-like transcription modulator E59R, Q9NWH9",-0.532 ± 0.054
6,"SAFB-like transcription modulator E59T, Q9NWH9",-0.323 ± 0.073
7,"SAFB-like transcription modulator E59V, Q9NWH9",-0.459 ± 0.052
8,"SAFB-like transcription modulator E59W, Q9NWH9",-1.02 ± 0.089
9,"SAFB-like transcription modulator E67A, Q9NWH9",-0.197 ± 0.046
10,"SAFB-like transcription modulator E67C, Q9NWH9",-0.252 ± 0.087
11,"SAFB-like transcription modulator E67D, Q9NWH9",-0.107 ± 0.086
12,"SAFB-like transcription modulator E67F, Q9NWH9",-0.041 ± 0.078
13,"SAFB-like transcription modulator E67G, Q9NWH9",-0.198 ± 0.049
14,"SAFB-like transcription modulator E67H, Q9NWH9",-0.107 ± 0.15
15,"SAFB-like transcription modulator E67I, Q9NWH9",0.017 ± 0.08
16,"SAFB-like transcription modulator E67K, Q9NWH9",-0.225 ± 0.082
17,"SAFB-like transcription modulator E67L, Q9NWH9",-0.134 ± 0.035
18,"SAFB-like transcription modulator E67M, Q9NWH9",-0.308 ± 0.092
19,"SAFB-like transcription modulator E67N, Q9NWH9",-0.002 ± 0.069
20,"SAFB-like transcription modulator E67P, Q9NWH9",-0.155 ± 0.089
21,"SAFB-like transcription modulator E67Q, Q9NWH9",-0.35 ± 0.1
22,"SAFB-like transcription modulator E67S, Q9NWH9",-0.084 ± 0.04
23,"SAFB-like transcription modulator E67T, Q9NWH9",-0.099 ± 0.049
24,"SAFB-like transcription modulator E67V, Q9NWH9",-0.042 ± 0.037
25,"SAFB-like transcription modulator E67W, Q9NWH9",-0.27 ± 0.037
